# B1: Polycomb complex protein BMI-1 (Homo sapiens), P35226 (parent)
# chain: MHRTTRIKITELNPHLMCVLCGGYFIDATTIIECLHSFCKTCIVRYLETSKYCPICDVQVHKTRPLLNIRSDKTLQDIVYKLVPGLFKNEMKRRRDFYAAHPSADAANGSNEDRGEVADEDKRIITDDEIISLSIEFFDQNRLDRKVNKDKEKSKEEVNDKRYLRCPAAMTVMHLRKFLRSKMDIPNTFQIDVMYEEEPLKDYYTLMDIAYIYTWRRNGPLPLKYRVRPTCKRMKISHQRDGLTNAGELESDSGSDKANSPAGGIPSTSSCLPSPSTPVQSPHPQFPHISSTMNGTSNSPSGNHQSSFANRPRKSSVNGSSATSSG
# Variants of: B1
# Conditions: with ubc_human UBC
row,Variant,effect of a mutation on the interaction
1,MHRTTRIKITELNPHLMYVLCGGYFIDATTIIECLHSFCKTCIVRYLETSKYCPICDVQVHKTRPLLNIRSDKTLQDIVYKLVPGLFKNEMKRRRDFYAAHPSADAANGSNEDRGEVADEDKRIITDDEIISLSIEFFDQNRLDRKVNKDKEKSKEEVNDKRYLRCPAAMTVMHLRKFLRSKMDIPNTFQIDVMYEEEPLKDYYTLMDIAYIYTWRRNGPLPLKYRVRPTCKRMKISHQRDGLTNAGELESDSGSDKANSPAGGIPSTSSCLPSPSTPVQSPHPQFPHISSTMNGTSNSPSGNHQSSFANRPRKSSVNGSSATSSG [C18Y],increasing interaction

# — IntAct's records for PubMed 19233177
